This assay has as its target minimal functional rat TRPV1 construct, tetramer reconstituted in lipid nanodisc (rat) (UniProt O35433). Briefly: cryo-EM structure.

Data on one molecule can be found in PMC4911334.

Chain of UniProt O35433 (O35433 whole entry): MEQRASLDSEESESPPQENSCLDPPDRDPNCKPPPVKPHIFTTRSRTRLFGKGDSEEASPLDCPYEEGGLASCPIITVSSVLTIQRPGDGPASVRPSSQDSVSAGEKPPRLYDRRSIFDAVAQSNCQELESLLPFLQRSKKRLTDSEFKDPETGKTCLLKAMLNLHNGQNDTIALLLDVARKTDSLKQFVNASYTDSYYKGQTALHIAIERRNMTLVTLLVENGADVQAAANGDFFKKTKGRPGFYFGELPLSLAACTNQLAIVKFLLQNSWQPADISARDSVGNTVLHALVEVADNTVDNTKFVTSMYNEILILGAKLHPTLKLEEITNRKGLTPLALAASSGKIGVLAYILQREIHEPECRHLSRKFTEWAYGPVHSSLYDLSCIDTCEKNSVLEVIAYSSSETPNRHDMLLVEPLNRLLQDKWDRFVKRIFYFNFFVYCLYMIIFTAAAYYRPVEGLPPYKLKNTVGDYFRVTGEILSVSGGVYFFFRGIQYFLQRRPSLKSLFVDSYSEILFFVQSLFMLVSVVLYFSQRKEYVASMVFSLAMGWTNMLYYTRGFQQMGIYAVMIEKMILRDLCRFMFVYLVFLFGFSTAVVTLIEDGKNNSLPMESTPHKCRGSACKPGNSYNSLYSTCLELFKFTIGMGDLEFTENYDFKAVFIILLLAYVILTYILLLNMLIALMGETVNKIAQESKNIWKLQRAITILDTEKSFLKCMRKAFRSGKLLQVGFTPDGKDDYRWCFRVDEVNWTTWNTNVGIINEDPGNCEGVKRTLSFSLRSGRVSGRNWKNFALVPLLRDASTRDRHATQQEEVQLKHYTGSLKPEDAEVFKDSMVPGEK

B1: double-knot toxin (DkTx) (peptide)
chain: DCAKEGEVCSWGKKCCDLDNFYCPMEFIPHCKKYKPYVPVTTNCAKEGEVCGWGSKCCHGLDCPLAFIPYCEKYRGRND
For the molecule B1, the stoichiometry N (DkTx per TRPV1 tetramer) is 2.
